Measured values taken from article PMC4874009, “Super-resolution microscopy reveals structural diversity in molecular exchange among peptide amphiphile nanofibres” (Nature Communications, 2016).
The star is where a group is joined. Cy3 = disulfo-cyanine carboxylic acid dye; Cy5 = disulfo-cyanine carboxylic acid dye; Palmitoyl = CCCCCCCCCCCCCCCC(=O)*

T1: non-labelled peptide amphiphile (palmitic acid tail, six alanines, three glutamic acids)
T1 construct: designed peptide amphiphile, not a stretch of a natural protein; also called non-labelled PA; unlabelled PA; source: synthetic peptide (Fmoc solid-phase synthesis, purified by reversed-phase HPLC)
T1 peptide: Palmitoyl-AAAAAAEEE-NH2

B1: peptide amphiphile labelled with the sulfonated cyanine dye Cy5 (peptide)
peptide: Palmitoyl-AAAAAAEEEK(Cy5)-NH2
notes: designed peptide amphiphile; Made on MBHA rink amide resin, so the C-terminus is probably an amide (surmised); also called Cy5-PA; PA-Cy5; source: synthetic peptide (Fmoc solid-phase synthesis, purified by reversed-phase HPLC)
B2: peptide amphiphile labelled with the sulfonated cyanine dye Cy3 (peptide)
peptide: Palmitoyl-AAAAAAEEEK(Cy3)-NH2
notes: designed peptide amphiphile; Made on MBHA rink amide resin, so the C-terminus is probably an amide (surmised); also called Cy3-PA; PA-Cy3; source: synthetic peptide (Fmoc solid-phase synthesis, purified by reversed-phase HPLC)

How the values were obtained:
[1] = target: B2; experiment: FRET or BRET; nanofibres co-assembled from non-labelled PA with Cy3-PA (1 mol%) and Cy5-PA (0, 0.1, 0.2 and 0.5 mol%); 10 mM HEPES pH 7.5, NaCl 150 mM, final PA concentration 0.5 mM; emission spectra at the Cy3 excitation wavelength 520 nm; settings: both partners purified
[2] = target: T1, non-labelled peptide amphiphile …; experiment: as above; settings: both partners purified

| binding result [1] | binding result [2] | Binder |
| --- | --- | --- |
| binds | binds | B1 |
|  | binds | B2 |
